Results: publication PMC7547225

Target: bacterially produced mm PCDH15 EC9-MAD12 (Mus musculus)
Test: SAXS

Substance: bacterially produced mm PCDH15 EC9-MAD12 (domain or fragment)
- stoichiometry N: 2
